Source: paper PMC12246617, “Cryo-EM structures reveal the PP2A–B55α and Eya3 interaction that can be disrupted by a peptide inhibitor” (The Journal of Biological Chemistry, 2025)

Columns and labels:
[1] = system: B55α (His-B55); test: Microscale thermophoresis (MST) binding of Eya3 to labeled His-B55; design: species or system human; conditions: fluorescently labeled His-B55, vs Eya3 WT
Description: We expressed and purified Eya3 protein from Escherichia coli and the His-B55α subunit from insect cells (Fig. S1). In the remainder of the article, we will use B55 to represent B55α for simplicity and PP2A–B55 to represent the holoenzyme containing the A, B55, and C subunits. We labeled His-B55 with the RED–Tris–NTA dye and carried out microscale thermophoresis (MST) experiments with increasing concentrations of Eya3.
The modeled Eya3 peptide (residues 65–86) interacts mostly with residues on blades 3 and 4 of the β-propeller on the B55 surface (including residues on the β2D and β3A loop, β3B and β3C loop, and β3D and β4A loop) and with residues on the α1 and α2 helix positioned above blade 5, as well as the α2 and β6A loop (Fig. 1F). In particular, residue H79^Eya3 forms pi–pi or pi–cation stacking with H179^B55 and a hydrogen bond with D197^B55 (Fig. 2A). […] Furthermore, Y77^Eya3 forms a hydrogen bond with the main chain carbonyl of L225^B55, and K75^Eya3 forms another hydrogen bond with Y337^B55 (Fig. 2, B and C). […] We expressed and purified Eya3 K75A, Y77A, and H79A mutant proteins from E. coli and carried out MST experiments with fluorescently labeled His-B55. […] While we were working on the structure of PP2A–B55 + Eya3, Padi et al. ([84]) published the cryo-EM structure of PP2A–B55 in complex with an Eya3 peptide (residues 62–108) on bioRxiv.
FLAG-hB55, FLAG-hEya3, GFP, and GFP-B55i were cloned into the pCAG vector; (GST)-mEya3 was cloned into pGEX-6p1; His-hB56γ1 was cloned into pGEX-4T1; and His-hB55 was cloned in pFASTbac, all using the NEBuilder HiFi DNA Assembly Cloning Kit (New England Biolabs). h and m represent human and mouse proteins, respectively.
GST-mEya3 and mutants were expressed in BL21 cells. Cells were lysed in lysis buffer containing 50 mM Tris (pH 7.5), 250 mM NaCl, 5% glycerol, 1 mM DTT, and protease inhibitor cocktail (PIC; Thermo Scientific). Lysis was done in ice with sonication using 4 × 45 s pulses with 2-min off periods. NaCl was brought up to 0.5 M using 5 M NaCl, and the lysate was centrifuged for 40 min at 18,000g. Supernatant was gravity-flown over glutathione resin twice. Resin was washed with 100 ml of lysis buffer. GST was cleaved with PreScission protease and eluted into lysis buffer. Eluates were pooled and concentrated with Amicon Ultra Centrifugal filters. Concentrated protein was separated on a pre-equilibrated S200 column for size-exclusion chromatography. Peaks were combined, concentrated again, aliquoted, and stored at −80 °C.
His-B55 was expressed in Hi5 cells. […]
His-B55 or His-B56γ1 labeled with […] (NanoTemper) was added to serial dilutions of mEya3 in PBS with 0.05% Tween-20. The samples were then read with a Monolith NT.115^Pico (NanoTemper) according to the manufacturer’s instructions.

[2] = system: apparent S/T phosphatase activity of Eya3; conditions: Eya3 mutant; cited from earlier work
Description: The modeled Eya3 peptide (residues 65–86) interacts mostly with residues on blades 3 and 4 of the β-propeller on the B55 surface (including residues on the β2D and β3A loop, β3B and β3C loop, and β3D and β4A loop) and with residues on the α1 and α2 helix positioned above blade 5, as well as the α2 and β6A loop (Fig. 1F). In particular, residue H79^Eya3 forms pi–pi or pi–cation stacking with H179^B55 and a hydrogen bond with D197^B55 (Fig. 2A). […] Furthermore, Y77^Eya3 forms a hydrogen bon ...

[3] = system: PP2A–B55; test: Fluorescent phosphatase assay with OMFP substrate; format: biochemical, human; conditions: three independent biological replicates
Experimental: We noted that the buffer condition we used in our assay (50 mM Tris [pH 7.5], 50 mM NaCl, 5 mM MgCl2, and 0.1 mM EDTA) is substantially different from that used by Padi et al. (30 mM Hepes [pH 7.0], 150 mM NaCl, 1 mM MnCl2, 1 mM DTT, 0.01% Triton X-100, and 0.1 mg/ml bovine serum albumin) ([46], [84]).
Figure 5 Eya3 NTD and B55i inhibit the phosphatase activity of PP2A–B55.A, the phosphatase activity of PP2A–B55 in the absence and presence of Eya3 NTD in a fluorescent phosphatase assay using OMFP as a substrate under our previous buffer conditions ([46]). […] RFU, relative fluorescence units; NTD, N-terminal domain; OMFP, 3-O-methylfluorescein phosphate. […]
FLAG-PP2A–B55 was expressed and purified from cells transfected with pCAG-FLAG-B55, using the same method as FLAG-hEya3. […] Proteins were analyzed by SDS-PAGE, and fractions containing the PP2A–B55α holoenzyme were pooled, concentrated, aliquoted, and stored at −80 °C.
PP2A–B55 holoenzyme (25 nM) with or without 1 μM Eya3 NTD in 30 mM Hepes (pH 7.0), 150 mM NaCl, 1 mM MnCl2, 1 mM DTT, 0.01% Triton X-100, 0.1 mg/ml bovine serum albumin was incubated at room temperature for 10 min. […] Fluorescent OMFP, corresponding to phosphatase activity, was read using a BioTek Synergy H1 plate reader (excitation at 485 nm and emission at 515 nm).

[4] = system: PP2A–B55; conditions: 6,8-difluoro-4-methylumbelliferyl phosphate substrate; cited from earlier work
Description: It is not surprising that ARPP19 and FAM122A inhibit the PP2A–B55 phosphatase activity since these two proteins bind on the surface of both B55 and C subunits, blocking access to the active site on C subunit.

Molecule	binding between Eya3 and B55 (mutants) [1]	phosphatase activity of PP2A–B55 in vitro [4]	further results
K75A: Eya3 K75A mutant protein from E. coli (protein, UniProt Q99504 1-573, looked up, variant K75A) Protein phosphatase EYA3: MEEEQDLPEQPVKKAKMQESGEQTISQVSNPDVSDQKPETSSLASNLPMSEEIMTCTDYIPRSSNDYTSQMYSAAPYAHILSVPVSETAYPGQTQYQTLQQTQPYAVYPQATQTYGLPPFGALWPGMKPESGLIQTPSPSQHSVLTCTTGLTTSQPSPAHYSYPIQASSTNASLISTSSTIANIPAAAVASISNQDYPTYTILGQNQYQACYPSSSFGVTGQTNSDAESTTLAATTYQSEKPSVMAPAPAAQRLSSGDPSTSPSLSQTTPSKDTDDQSRKNMTSKNRGKRKADATSSQDSELERVFLWDLDETIIIFHSLLTGSYAQKYGKDPTVVIGSGLTMEEMIFEVADTHLFFNDLEECDQVHVEDVASDDNGQDLSNYSFSTDGFSGSGGSGSHGSSVGVQGGVDWMRKLAFRYRKVREIYDKHKSNVGGLLSPQRKEALQRLRAEIEVLTDSWLGTALKSLLLIQSRKNCVNVLITTTQLVPALAKVLLYGLGEIFPIENIYSATKIGKESCFERIVSRFGKKVTYVVIGDGRDEEIAAKQHNMPFWRITNHGDLVSLHQALELDFL	significantly reduce the binding between Eya3 and B55	–	–
Y77A: Eya3 Y77A mutant protein from E. coli (protein, UniProt Q99504 1-573, looked up, variant Y77A) Protein phosphatase EYA3: MEEEQDLPEQPVKKAKMQESGEQTISQVSNPDVSDQKPETSSLASNLPMSEEIMTCTDYIPRSSNDYTSQMYSAKPAAHILSVPVSETAYPGQTQYQTLQQTQPYAVYPQATQTYGLPPFGALWPGMKPESGLIQTPSPSQHSVLTCTTGLTTSQPSPAHYSYPIQASSTNASLISTSSTIANIPAAAVASISNQDYPTYTILGQNQYQACYPSSSFGVTGQTNSDAESTTLAATTYQSEKPSVMAPAPAAQRLSSGDPSTSPSLSQTTPSKDTDDQSRKNMTSKNRGKRKADATSSQDSELERVFLWDLDETIIIFHSLLTGSYAQKYGKDPTVVIGSGLTMEEMIFEVADTHLFFNDLEECDQVHVEDVASDDNGQDLSNYSFSTDGFSGSGGSGSHGSSVGVQGGVDWMRKLAFRYRKVREIYDKHKSNVGGLLSPQRKEALQRLRAEIEVLTDSWLGTALKSLLLIQSRKNCVNVLITTTQLVPALAKVLLYGLGEIFPIENIYSATKIGKESCFERIVSRFGKKVTYVVIGDGRDEEIAAKQHNMPFWRITNHGDLVSLHQALELDFL	significantly reduce the binding between Eya3 and B55	–	apparent S/T phosphatase activity of Eya3 [2]: abolish the apparent S/T phosphatase activity of Eya3
Eya3 NTD: Eya3 N-terminal domain protein (NTD, residues 1–250) (protein, UniProt Q99504 1-250, looked up, fragment) MEEEQDLPEQPVKKAKMQESGEQTISQVSNPDVSDQKPETSSLASNLPMSEEIMTCTDYIPRSSNDYTSQMYSAKPYAHILSVPVSETAYPGQTQYQTLQQTQPYAVYPQATQTYGLPPFGALWPGMKPESGLIQTPSPSQHSVLTCTTGLTTSQPSPAHYSYPIQASSTNASLISTSSTIANIPAAAVASISNQDYPTYTILGQNQYQACYPSSSFGVTGQTNSDAESTTLAATTYQSEKPSVMAPAPA	–	–	phosphatase activity of PP2A–B55 (Padi et al. buffer) ([3]; 25 nM PP2A–B55, 1 μM Eya3 NTD, 30 mM Hepes (pH 7.0), 150 mM NaCl, 1 mM MnCl2, 1 mM DTT, 0.01% Triton X-100, 0.1 mg/ml BSA, room temperature 10 min, then 37 °C 30 min, ex 485/em 515 nm): inhibits the phosphatase activity of PP2A–B55; phosphatase activity of PP2A–B55 (previous buffer) ([3]; buffer 50 mM Tris [pH 7.5], 50 mM NaCl, 5 mM MgCl2, 0.1 mM EDTA, with vs without Eya3 NTD): increases the phosphatase activity of PP2A–B55
ARPP19: a protein inhibitor that binds to both the B and C subunits (protein, UniProt P56211 2-112, looked up) cAMP-regulated phosphoprotein …: SAEVPEAASAEEQKEMEDKVTSPEKAEEAKLKARYPHLGQKPGGSDFLRKRLQKGQKYFDSGDYNMAKAKMKNKQLPTAAPDKTEVTGDHIPTPQDLPQRKPSLVASKLAG	–	inhibit the phosphatase activity of PP2A–B55 in vitro	–
FAM122A: a protein inhibitor that binds to both the B and C subunits (protein, UniProt Q96E09 1-287, looked up) PPP2R1A-PPP2R2A-interacting …: MAQEKMELDLELPPGTGGSPAEGGGSGGGGGLRRSNSAPLIHGLSDTSPVFQAEAPSARRNSTTFPSRHGLLLPASPVRMHSSRLHQIKQEEGMDLINRETVHEREVQTAMQISHSWEESFSLSDNDVEKSASPKRIDFIPVSPAPSPTRGIGKQCFSPSLQSFVSSNGLPPSPIPSPTTRFTTRRSQSPINCIRPSVLGPLKRKCEMETEYQPKRFFQGITNMLSSDVAQLSDPGVCVSSDTLDGNSSSAGSSCNSPAKVSTTTDSPVSPAQAASPFIPLDELSSK	–	inhibit the phosphatase activity of PP2A–B55 in vitro	–
